Measurements: article doi:10.1101/2021.09.08.459485 (2021)

T1: SARS-CoV-2 Spike protein peptide on HLA-DPB1*04:01 (human)
T1 peptide: CTFEYVSQPFLMDLE

T2: SARS-CoV-2 Spike protein peptide on HLA-DPB1*04:01 (human)
T2 peptide: TFEYVSQPFLMDLE


Assays:
[1] = biological target: T1, SARS-CoV-2 Spike protein peptide on …; test: activation reporter or marker
[2] = biological target: T2, SARS-CoV-2 Spike protein peptide on …; test: multimer staining

Binder	binding result [1]	binding result [2]
TCR6.3 (TCR) alpha TRAV35 TRAJ42 CDR3: CAGMNYGGSQGNLIF beta TRBV6-3 TRBJ1-2 CDR3: CASSYRGAYGYTF	recognises	recognises
TCR4.1 (TCR) alpha TRAV35 TRAJ42 CDR3: CAGMNYGGSQGNLIF beta TRBV4-1 TRBJ1-2 CDR3: CASSQGVGYTF	recognises	recognises
